Results on eight molecules are retold here after patent US20200223888A1 (ARCH BIOPARTNERS, published 2020).

Ends that are not written are not given here. * marks the point of attachment. Biotin = O=C1N[C@H]2[C@H](CS[C@H]2CCCCC(=O)*)N1

B3: LSALT peptide (LSALTPSPSWLKYKAL) (peptide)
peptide: LSALTPSPSWLKYKAL
modifications: also: Alexa-488 or biotin label or agarose support in some assays, site not given here
notes: Synthetic peptide from a phage display hit; The label or support differs between assays; also called Metablok; Native

The target in data set [1] is B3. The data set can be described thus: phage display biopanning against LSALT-agarose, three rounds, plaque sequencing (FIG. 20A). An excerpt:
Each plaque was amplified separately in liquid bacterial host culture. […] DNA inserts were translated to the expected protein and sorted to assess the number of repeating sequences.

The target of data set [2] is T1, LSALT peptide (LSALTPSPSWLKYKAL).
T1 chain: LSALTPSPSWLKYKAL

Data set [3] deals with T2, human membrane dipeptidase (DPEP-1), wild type, expressed on transfected cells (human, UniProt P16444 17-385).
T2 construct: whole, on cells; also called human DPEP1; hDPEP1
T2 sequence (looked up): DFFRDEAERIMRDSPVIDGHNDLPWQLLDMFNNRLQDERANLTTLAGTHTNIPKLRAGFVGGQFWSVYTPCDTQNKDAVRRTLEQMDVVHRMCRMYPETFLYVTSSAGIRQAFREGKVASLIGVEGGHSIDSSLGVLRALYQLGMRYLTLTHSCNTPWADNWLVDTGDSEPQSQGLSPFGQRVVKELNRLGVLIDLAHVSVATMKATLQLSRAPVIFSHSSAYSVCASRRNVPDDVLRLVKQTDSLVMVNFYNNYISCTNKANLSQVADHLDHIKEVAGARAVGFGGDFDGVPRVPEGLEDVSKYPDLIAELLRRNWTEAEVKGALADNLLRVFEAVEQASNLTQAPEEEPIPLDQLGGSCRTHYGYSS
The data set can be described thus: Alexa-488 peptide on transfected Cos-1 cells, immunofluorescence microscopy (FIG. 5B). As for the experimental part: Cells were blocked with FBS/NBSA/Tween in PBS for 30 minutes on ice.

For data set [4], the target named is T3, rat membrane dipeptidase (DPEP-1), expressed on transfected Cos cells (rat, UniProt P31430 17-384).
T3 construct: whole, on cells; also called renal rat membrane dipeptidase (DPEP-1); rat DPEP-1
T3 sequence (P31430 17-384): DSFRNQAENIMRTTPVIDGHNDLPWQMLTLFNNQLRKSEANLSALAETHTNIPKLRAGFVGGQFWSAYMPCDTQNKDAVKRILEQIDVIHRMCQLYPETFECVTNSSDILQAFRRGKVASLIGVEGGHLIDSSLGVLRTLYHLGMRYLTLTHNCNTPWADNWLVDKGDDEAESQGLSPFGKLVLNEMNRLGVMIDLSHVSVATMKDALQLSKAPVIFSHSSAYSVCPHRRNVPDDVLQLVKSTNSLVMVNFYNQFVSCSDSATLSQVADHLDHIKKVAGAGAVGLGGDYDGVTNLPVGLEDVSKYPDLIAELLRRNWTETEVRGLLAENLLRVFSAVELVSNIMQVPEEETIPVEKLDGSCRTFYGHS
The data set can be described thus: Alexa-488 peptide on transfected Cos-7 cells, flow cytometry (FIG. 9). As to the method:
Cells were washed and flow cytometry was performed to assess binding. Shown are single parameter histographs for each experimental condition (n=2).
A general note: Flow cytometry measures light scatter and fluorescence of single cells or particles in a stream.

In data set [5] the target is T2, human membrane dipeptidase (DPEP-1), …. The data set can be described thus: biotinylated peptide at 5 uM on fixed DPEP1-transfected HEK cells, Alexa 568-streptavidin, fluorescence microscopy.
The target is the same in data set [6]. The data set can be described thus: phage (10^8 pfu) on DPEP1 transfected Cos 1 cells, anti-M13 serum, fluorescence imaging (FIG. 19B). As for the experimental part: In FIG. 19B, Cosl cells were transiently transfected with plasmids corresponding to human DPEP1 or DPEP2 (Lipofectamine 2000) 24 hrs prior to plating on collagen-coated (PureCol; Type I collagen from bovine tendon) coverslips. One day later cells were incubated with 10⁸ pfu test phage, which were then detected by anti-M13 rabbit serum (in house) with anti-rabbit Alexa 568 secondary. After fixing and counterstaining with DAPI, coverslips were fluorescently imaged.

B1: IPK phage hit HIPKSPIQIPII (Ph.D.-12 library) (peptide)
peptide: HIPKSPIQIPII
notes: also called IPK peptide
With B1, the binding result in data set [1] is “binds”.

B2: human membrane dipeptidase (DPEP-1), wild type, expressed on transfected cells (protein)
chain: DFFRDEAERIMRDSPVIDGHNDLPWQLLDMFNNRLQDERANLTTLAGTHTNIPKLRAGFVGGQFWSVYTPCDTQNKDAVRRTLEQMDVVHRMCRMYPETFLYVTSSAGIRQAFREGKVASLIGVEGGHSIDSSLGVLRALYQLGMRYLTLTHSCNTPWADNWLVDTGDSEPQSQGLSPFGQRVVKELNRLGVLIDLAHVSVATMKATLQLSRAPVIFSHSSAYSVCASRRNVPDDVLRLVKQTDSLVMVNFYNNYISCTNKANLSQVADHLDHIKEVAGARAVGFGGDFDGVPRVPEGLEDVSKYPDLIAELLRRNWTEAEVKGALADNLLRVFEAVEQASNLTQAPEEEPIPLDQLGGSCRTHYGYSS
Take B2: the “membrane dipeptidase enzyme activity (Gly-D-Phe substrate, fluorimetric detection of D-Phe)” value in data set [2] is “LSALT and GFE-1 do not inhibit membrane dipeptidase enzyme activity”; with GFE-1 peptide, “LSALT and GFE-1 do not inhibit membrane dipeptidase enzyme activity”.
As for B3, the binding result in data set [3] and in data set [4] was “binds” each time.

B4: LSALT alanine walk peptide Pos 12 (LSALTPSPSWLAYKAL) (peptide)
peptide: Biotin-LSALTPSPSWLAYKAL
notes: also called #A12; #Al2
Turning to B4, the binding result in data set [5] was “binds”.

B5: LSALT alanine walk peptide Pos 5 (LSALAPSPSWLKYKAL) (peptide)
peptide: Biotin-LSALAPSPSWLKYKAL
notes: also called #A5; A5
With B5, in data set [5], the binding result is given as “binds”.

B6: LSALT alanine walk peptide Pos 10 (LSALTPSPSALKYKAL) (peptide)
peptide: Biotin-LSALTPSPSALKYKAL
notes: also called #A10; A10
Turning to B6, the binding result in data set [5] is “binds”.

B7: LSALT alanine walk peptide Pos 1 (ASALTPSPSWLKYKAL) (peptide)
peptide: Biotin-ASALTPSPSWLKYKAL
notes: also called #A1; A1
For the molecule B7, the binding result in data set [5] is “binds”.

B8: phage hit displaying KHMHWHPPALNT (Ph.D.-12 library) (peptide)
peptide: KHMHWHPPALNT
notes: The phage coat protein part is not described; also called neogenin-mimetic peptide phage hit; phage peptide tentatively identified as corresponding to Neogenin
For the molecule B8, the binding result in data set [6] is listed as “binds”.
